Assay results from EP4559472A1.

Target: Biotinylated C4b (UniProt P0C0L4)
Assay: SPR, biotinylated C4b on streptavidin chip, 1:1 steady-state affinity model

Chain of mini-C4BP (P08603 other isoform, or with tags, fused parts or gaps): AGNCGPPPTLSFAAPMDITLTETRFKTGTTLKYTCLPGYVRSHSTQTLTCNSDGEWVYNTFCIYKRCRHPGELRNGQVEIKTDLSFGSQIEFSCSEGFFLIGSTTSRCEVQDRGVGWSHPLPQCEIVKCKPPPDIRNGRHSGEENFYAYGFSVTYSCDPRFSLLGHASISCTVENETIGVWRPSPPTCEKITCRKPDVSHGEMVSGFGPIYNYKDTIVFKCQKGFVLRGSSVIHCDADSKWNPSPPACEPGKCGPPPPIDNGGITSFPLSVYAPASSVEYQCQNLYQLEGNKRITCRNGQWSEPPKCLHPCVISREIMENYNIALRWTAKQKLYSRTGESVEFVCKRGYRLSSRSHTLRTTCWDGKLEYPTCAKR

mini-C4BP (from UniProt P08603 1107-1231)
Kd: 600 nM
